Measurements: the supplement of paper PMC9876800

The substances below were run on peptide library, one residue held at a place counted from the S/T acceptor (assay: relative phosphorylation of the sub-library (ratio to the mean residue at this position); human; higher = residue favoured). Conditions: D fixed; at +2.
How it was run: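 Relative sub-library phosphorylation is the ratio of each sub-library's signal to the mean residue at that position. The signal came from phosphorimaging of spots on streptavidin membranes, quantified by densitometry, after purified recombinant kinases reacted with biotinylated degenerate peptide sub-libraries in 384-well plates. Reactions held 50 μM peptide and 50 μM ATP spiked with γ-32P-ATP for 90 min under kinase-specific conditions.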

Sequence of MASTL, construct: Full length (Q96GX5 whole entry, looked up): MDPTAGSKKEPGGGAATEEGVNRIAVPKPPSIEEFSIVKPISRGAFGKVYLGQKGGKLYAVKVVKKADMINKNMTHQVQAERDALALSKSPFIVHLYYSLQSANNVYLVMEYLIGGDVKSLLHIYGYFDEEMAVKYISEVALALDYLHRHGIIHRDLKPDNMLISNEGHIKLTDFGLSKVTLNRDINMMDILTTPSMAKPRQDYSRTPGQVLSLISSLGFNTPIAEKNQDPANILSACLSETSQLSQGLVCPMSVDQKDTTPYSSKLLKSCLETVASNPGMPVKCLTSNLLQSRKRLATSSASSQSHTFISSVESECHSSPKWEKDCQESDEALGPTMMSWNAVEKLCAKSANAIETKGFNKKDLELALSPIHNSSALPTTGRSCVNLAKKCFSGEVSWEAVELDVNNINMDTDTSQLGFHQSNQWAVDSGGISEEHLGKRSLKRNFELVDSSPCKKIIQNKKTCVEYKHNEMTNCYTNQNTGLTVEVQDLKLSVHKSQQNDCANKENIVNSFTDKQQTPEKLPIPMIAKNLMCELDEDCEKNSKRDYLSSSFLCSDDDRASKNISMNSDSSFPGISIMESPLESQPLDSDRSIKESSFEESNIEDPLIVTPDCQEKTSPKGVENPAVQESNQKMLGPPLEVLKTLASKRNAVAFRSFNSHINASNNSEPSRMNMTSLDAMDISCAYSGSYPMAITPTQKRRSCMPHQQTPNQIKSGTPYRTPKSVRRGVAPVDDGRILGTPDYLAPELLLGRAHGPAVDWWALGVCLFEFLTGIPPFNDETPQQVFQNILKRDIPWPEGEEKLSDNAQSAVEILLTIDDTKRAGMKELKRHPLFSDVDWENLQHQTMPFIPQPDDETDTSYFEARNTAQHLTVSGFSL
Sequence of MELK, construct: aa1-340 (Q14680 1-340, looked up): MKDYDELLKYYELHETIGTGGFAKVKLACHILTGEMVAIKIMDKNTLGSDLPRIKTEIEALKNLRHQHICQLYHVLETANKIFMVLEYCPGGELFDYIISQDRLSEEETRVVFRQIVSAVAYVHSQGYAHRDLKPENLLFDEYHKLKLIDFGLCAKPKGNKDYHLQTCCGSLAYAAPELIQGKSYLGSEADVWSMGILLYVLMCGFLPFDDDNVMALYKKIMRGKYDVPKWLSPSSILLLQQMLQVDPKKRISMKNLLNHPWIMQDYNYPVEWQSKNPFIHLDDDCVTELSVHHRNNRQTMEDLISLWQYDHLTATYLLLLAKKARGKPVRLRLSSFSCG
Sequence of TTK, construct: Full length (P33981 whole entry, looked up): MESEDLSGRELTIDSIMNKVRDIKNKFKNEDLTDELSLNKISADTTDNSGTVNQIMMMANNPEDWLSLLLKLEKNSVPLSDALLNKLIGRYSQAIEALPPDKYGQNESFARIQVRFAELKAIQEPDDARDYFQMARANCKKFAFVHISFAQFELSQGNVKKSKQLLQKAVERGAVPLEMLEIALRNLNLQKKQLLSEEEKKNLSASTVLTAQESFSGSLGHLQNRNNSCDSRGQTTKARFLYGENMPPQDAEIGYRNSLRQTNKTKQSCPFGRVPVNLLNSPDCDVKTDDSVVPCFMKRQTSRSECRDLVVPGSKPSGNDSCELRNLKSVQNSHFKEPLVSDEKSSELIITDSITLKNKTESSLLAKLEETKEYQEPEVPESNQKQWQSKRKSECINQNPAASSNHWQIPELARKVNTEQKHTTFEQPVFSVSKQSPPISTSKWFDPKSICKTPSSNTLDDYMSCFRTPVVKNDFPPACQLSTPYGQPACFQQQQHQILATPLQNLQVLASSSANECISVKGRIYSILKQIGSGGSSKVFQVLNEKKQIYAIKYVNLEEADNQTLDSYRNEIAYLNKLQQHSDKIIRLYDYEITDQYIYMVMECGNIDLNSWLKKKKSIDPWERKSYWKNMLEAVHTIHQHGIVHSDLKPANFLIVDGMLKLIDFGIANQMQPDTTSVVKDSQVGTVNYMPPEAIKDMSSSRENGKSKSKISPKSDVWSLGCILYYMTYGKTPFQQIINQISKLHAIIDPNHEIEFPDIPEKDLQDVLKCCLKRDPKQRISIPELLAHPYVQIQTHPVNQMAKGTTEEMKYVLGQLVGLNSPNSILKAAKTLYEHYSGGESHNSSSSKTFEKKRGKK
Sequence of GRK5, construct: Full length (P34947 whole entry, looked up): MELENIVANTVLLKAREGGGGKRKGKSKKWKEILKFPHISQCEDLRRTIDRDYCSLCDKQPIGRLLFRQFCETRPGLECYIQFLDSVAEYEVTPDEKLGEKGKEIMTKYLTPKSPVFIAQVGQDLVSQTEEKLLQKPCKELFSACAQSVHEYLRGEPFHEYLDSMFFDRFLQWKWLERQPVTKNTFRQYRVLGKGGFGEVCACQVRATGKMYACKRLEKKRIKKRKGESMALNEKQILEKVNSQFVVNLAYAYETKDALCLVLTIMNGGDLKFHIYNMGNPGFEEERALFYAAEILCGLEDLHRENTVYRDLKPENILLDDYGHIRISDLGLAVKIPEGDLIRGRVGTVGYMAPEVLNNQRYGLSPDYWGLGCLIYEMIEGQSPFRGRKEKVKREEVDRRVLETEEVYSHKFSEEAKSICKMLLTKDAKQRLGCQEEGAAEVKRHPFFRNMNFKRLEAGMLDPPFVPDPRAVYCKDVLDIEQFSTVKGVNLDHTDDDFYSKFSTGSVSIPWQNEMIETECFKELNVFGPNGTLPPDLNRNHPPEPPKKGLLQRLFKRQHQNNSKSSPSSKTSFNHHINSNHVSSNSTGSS
Sequence of PAK3, construct: Full length (O75914 whole entry, looked up): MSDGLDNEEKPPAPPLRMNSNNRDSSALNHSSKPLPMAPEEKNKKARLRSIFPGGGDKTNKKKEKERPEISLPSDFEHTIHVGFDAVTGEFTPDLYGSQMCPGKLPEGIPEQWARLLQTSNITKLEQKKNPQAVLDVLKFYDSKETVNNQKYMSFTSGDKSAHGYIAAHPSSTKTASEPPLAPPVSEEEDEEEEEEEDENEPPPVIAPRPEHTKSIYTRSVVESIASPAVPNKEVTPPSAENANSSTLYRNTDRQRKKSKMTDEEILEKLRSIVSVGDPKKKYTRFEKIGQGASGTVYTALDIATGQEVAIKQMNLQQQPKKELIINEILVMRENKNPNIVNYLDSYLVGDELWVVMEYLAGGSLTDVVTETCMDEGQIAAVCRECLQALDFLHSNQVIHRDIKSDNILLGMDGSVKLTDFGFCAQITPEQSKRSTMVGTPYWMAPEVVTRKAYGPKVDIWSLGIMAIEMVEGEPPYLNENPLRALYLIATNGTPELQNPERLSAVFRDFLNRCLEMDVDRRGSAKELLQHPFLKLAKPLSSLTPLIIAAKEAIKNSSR
Sequence of CLK3, construct: Full length (P49761 whole entry, looked up): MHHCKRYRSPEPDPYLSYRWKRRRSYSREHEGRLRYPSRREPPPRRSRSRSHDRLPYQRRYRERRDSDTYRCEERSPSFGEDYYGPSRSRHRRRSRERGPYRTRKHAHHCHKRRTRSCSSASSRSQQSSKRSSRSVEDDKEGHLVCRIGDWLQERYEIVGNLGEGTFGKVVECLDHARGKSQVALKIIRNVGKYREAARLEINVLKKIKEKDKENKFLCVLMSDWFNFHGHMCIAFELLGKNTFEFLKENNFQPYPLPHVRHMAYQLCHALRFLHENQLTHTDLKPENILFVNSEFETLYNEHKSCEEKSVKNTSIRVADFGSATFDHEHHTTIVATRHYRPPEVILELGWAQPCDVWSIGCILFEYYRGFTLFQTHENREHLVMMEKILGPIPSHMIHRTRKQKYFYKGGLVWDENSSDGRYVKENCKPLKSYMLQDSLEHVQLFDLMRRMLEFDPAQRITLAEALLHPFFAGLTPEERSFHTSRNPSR
Sequence of RPS6KA6, construct: Full length (Q9UK32 whole entry, looked up): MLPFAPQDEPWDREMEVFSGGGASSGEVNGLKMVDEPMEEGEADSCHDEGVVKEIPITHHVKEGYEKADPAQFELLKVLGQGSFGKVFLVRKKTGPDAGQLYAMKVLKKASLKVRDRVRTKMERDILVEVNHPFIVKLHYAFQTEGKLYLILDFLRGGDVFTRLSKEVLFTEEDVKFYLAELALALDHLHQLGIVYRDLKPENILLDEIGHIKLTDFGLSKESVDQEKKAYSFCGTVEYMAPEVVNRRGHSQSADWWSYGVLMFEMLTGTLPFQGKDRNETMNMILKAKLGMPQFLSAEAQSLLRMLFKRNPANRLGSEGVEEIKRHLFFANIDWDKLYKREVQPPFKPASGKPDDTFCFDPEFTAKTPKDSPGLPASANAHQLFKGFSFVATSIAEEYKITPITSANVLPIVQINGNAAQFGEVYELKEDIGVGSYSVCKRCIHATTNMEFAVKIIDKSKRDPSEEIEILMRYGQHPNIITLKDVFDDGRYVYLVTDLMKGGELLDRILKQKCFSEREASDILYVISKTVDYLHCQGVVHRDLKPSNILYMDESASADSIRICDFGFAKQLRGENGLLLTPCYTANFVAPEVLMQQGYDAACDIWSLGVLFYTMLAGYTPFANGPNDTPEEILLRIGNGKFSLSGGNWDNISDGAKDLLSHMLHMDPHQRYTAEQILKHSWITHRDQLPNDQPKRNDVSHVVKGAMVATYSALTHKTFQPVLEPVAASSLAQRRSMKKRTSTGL
Sequence of PRPF4B, construct: aa519-end (Q13523 519-1007, looked up): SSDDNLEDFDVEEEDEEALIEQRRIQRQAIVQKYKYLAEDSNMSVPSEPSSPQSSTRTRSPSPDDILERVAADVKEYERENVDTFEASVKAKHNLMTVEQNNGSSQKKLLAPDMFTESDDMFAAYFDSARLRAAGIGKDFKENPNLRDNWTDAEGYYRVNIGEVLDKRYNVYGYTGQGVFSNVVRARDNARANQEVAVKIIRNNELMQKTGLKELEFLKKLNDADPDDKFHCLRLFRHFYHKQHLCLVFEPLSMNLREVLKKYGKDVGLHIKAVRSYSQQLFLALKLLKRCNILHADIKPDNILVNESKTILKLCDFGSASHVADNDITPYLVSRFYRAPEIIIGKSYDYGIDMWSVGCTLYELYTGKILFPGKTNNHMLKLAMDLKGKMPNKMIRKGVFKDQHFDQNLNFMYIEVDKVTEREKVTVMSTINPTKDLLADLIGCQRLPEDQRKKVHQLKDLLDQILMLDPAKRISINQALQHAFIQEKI

Row | Substance | relative phosphorylation
1 | GRK5, construct: Full length (from UniProt P34947) | 1.03
2 | TTK, construct: Full length (from UniProt P33981) | 0.389
3 | PRPF4B, construct: aa519-end (from UniProt Q13523) | 0.683

Same assay, conditions: D fixed; at +3

Row | Substance | relative phosphorylation
4 | PAK3, construct: Full length (from UniProt O75914) | 0.768
5 | MASTL, construct: Full length (from UniProt Q96GX5) | 0.711
6 | MELK, construct: aa1-340 (from UniProt Q14680) | 0.902
7 | CLK3, construct: Full length (from UniProt P49761) | 0.683
8 | RPS6KA6, construct: Full length (from UniProt Q9UK32) | 1.24
9 | GRK5, construct: Full length (from UniProt P34947) | 1.73
10 | TTK, construct: Full length (from UniProt P33981) | 0.331
11 | PRPF4B, construct: aa519-end (from UniProt Q13523) | 0.635

Same assay, conditions: D fixed; at +4

Row | Substance | relative phosphorylation
12 | PAK3, construct: Full length (from UniProt O75914) | 0.986
13 | MASTL, construct: Full length (from UniProt Q96GX5) | 0.972
14 | MELK, construct: aa1-340 (from UniProt Q14680) | 0.634
15 | CLK3, construct: Full length (from UniProt P49761) | 1.62
16 | RPS6KA6, construct: Full length (from UniProt Q9UK32) | 1.3
17 | GRK5, construct: Full length (from UniProt P34947) | 1.58
18 | TTK, construct: Full length (from UniProt P33981) | 0.48
19 | PRPF4B, construct: aa519-end (from UniProt Q13523) | 0.83

Same assay, conditions: D fixed; at -1

Row | Substance | relative phosphorylation
20 | PAK3, construct: Full length (from UniProt O75914) | 0.485
21 | MASTL, construct: Full length (from UniProt Q96GX5) | 0.826
22 | MELK, construct: aa1-340 (from UniProt Q14680) | 0.495
23 | CLK3, construct: Full length (from UniProt P49761) | 0.872
24 | RPS6KA6, construct: Full length (from UniProt Q9UK32) | 0.622
25 | GRK5, construct: Full length (from UniProt P34947) | 1.08
26 | TTK, construct: Full length (from UniProt P33981) | 1.22
27 | PRPF4B, construct: aa519-end (from UniProt Q13523) | 0.907

Same assay, conditions: D fixed; at -2

Row | Substance | relative phosphorylation
28 | PAK3, construct: Full length (from UniProt O75914) | 0.178
29 | MASTL, construct: Full length (from UniProt Q96GX5) | 0.719
30 | MELK, construct: aa1-340 (from UniProt Q14680) | 0.251
31 | CLK3, construct: Full length (from UniProt P49761) | 1.26
32 | RPS6KA6, construct: Full length (from UniProt Q9UK32) | 0.544
33 | GRK5, construct: Full length (from UniProt P34947) | 0.951
34 | TTK, construct: Full length (from UniProt P33981) | 4.68
35 | PRPF4B, construct: aa519-end (from UniProt Q13523) | 0.693

Same assay, conditions: D fixed; at -3

Row | Substance | relative phosphorylation
36 | PAK3, construct: Full length (from UniProt O75914) | 0.437
37 | MASTL, construct: Full length (from UniProt Q96GX5) | 0.63
38 | MELK, construct: aa1-340 (from UniProt Q14680) | 0.225
39 | CLK3, construct: Full length (from UniProt P49761) | 1.43
40 | RPS6KA6, construct: Full length (from UniProt Q9UK32) | 0.444
41 | GRK5, construct: Full length (from UniProt P34947) | 1.27
42 | TTK, construct: Full length (from UniProt P33981) | 2.19
43 | PRPF4B, construct: aa519-end (from UniProt Q13523) | 0.586

Same assay, conditions: D fixed; at -4

Row | Substance | relative phosphorylation
44 | PAK3, construct: Full length (from UniProt O75914) | 0.64
45 | MASTL, construct: Full length (from UniProt Q96GX5) | 0.69
46 | MELK, construct: aa1-340 (from UniProt Q14680) | 0.47
47 | CLK3, construct: Full length (from UniProt P49761) | 1.4
48 | RPS6KA6, construct: Full length (from UniProt Q9UK32) | 0.785
49 | GRK5, construct: Full length (from UniProt P34947) | 1.28
50 | TTK, construct: Full length (from UniProt P33981) | 1.55
51 | PRPF4B, construct: aa519-end (from UniProt Q13523) | 1.81

Same assay, conditions: D fixed; at -5

Row | Substance | relative phosphorylation
52 | PAK3, construct: Full length (from UniProt O75914) | 0.604
53 | MASTL, construct: Full length (from UniProt Q96GX5) | 0.66
54 | MELK, construct: aa1-340 (from UniProt Q14680) | 0.446
55 | CLK3, construct: Full length (from UniProt P49761) | 1.87
56 | RPS6KA6, construct: Full length (from UniProt Q9UK32) | 0.613
57 | GRK5, construct: Full length (from UniProt P34947) | 1.27
58 | TTK, construct: Full length (from UniProt P33981) | 1.15
59 | PRPF4B, construct: aa519-end (from UniProt Q13523) | 1.13

Same assay, conditions: E fixed; at +1

Row | Substance | relative phosphorylation
60 | PAK3, construct: Full length (from UniProt O75914) | 0.356
61 | MASTL, construct: Full length (from UniProt Q96GX5) | 0.62
62 | MELK, construct: aa1-340 (from UniProt Q14680) | 0.447
63 | CLK3, construct: Full length (from UniProt P49761) | 1.27
64 | RPS6KA6, construct: Full length (from UniProt Q9UK32) | 1.44
65 | GRK5, construct: Full length (from UniProt P34947) | 2.19
66 | TTK, construct: Full length (from UniProt P33981) | 0.883
67 | PRPF4B, construct: aa519-end (from UniProt Q13523) | 0.929

Same assay, conditions: E fixed; at +2

Row | Substance | relative phosphorylation
68 | PAK3, construct: Full length (from UniProt O75914) | 0.297
69 | MASTL, construct: Full length (from UniProt Q96GX5) | 0.693
70 | MELK, construct: aa1-340 (from UniProt Q14680) | 0.274
71 | CLK3, construct: Full length (from UniProt P49761) | 1.91
72 | RPS6KA6, construct: Full length (from UniProt Q9UK32) | 0.799
73 | GRK5, construct: Full length (from UniProt P34947) | 0.721
74 | TTK, construct: Full length (from UniProt P33981) | 0.339
75 | PRPF4B, construct: aa519-end (from UniProt Q13523) | 0.685

Same assay, conditions: E fixed; at +3

Row | Substance | relative phosphorylation
76 | PAK3, construct: Full length (from UniProt O75914) | 0.701
77 | MASTL, construct: Full length (from UniProt Q96GX5) | 0.766
78 | MELK, construct: aa1-340 (from UniProt Q14680) | 0.436
79 | CLK3, construct: Full length (from UniProt P49761) | 0.622
80 | RPS6KA6, construct: Full length (from UniProt Q9UK32) | 1.65
81 | GRK5, construct: Full length (from UniProt P34947) | 1.96
82 | TTK, construct: Full length (from UniProt P33981) | 0.26
83 | PRPF4B, construct: aa519-end (from UniProt Q13523) | 0.59

Same assay, conditions: E fixed; at +4

Row | Substance | relative phosphorylation
84 | PAK3, construct: Full length (from UniProt O75914) | 0.89
85 | MASTL, construct: Full length (from UniProt Q96GX5) | 0.951
86 | MELK, construct: aa1-340 (from UniProt Q14680) | 0.558
